Results on 17 molecules are retold here after patent US20210115421 (published 2021).

The target in series [1] is T1, LbCas12a-K595Y (Lachnospiraceae bacterium ND2006, K595Y). As to the kind of experiment: cleavage_in_vitro; PAM ACCC; NEB 2.1, 37C; wt TTTV benchmark 9.2.
In series [2] the target is T2, LbCas12a-D156Q (Lachnospiraceae bacterium ND2006, D156Q). As to the kind of experiment: cleavage_in_vitro; PAM CCTA; NEB 2.1, 37C.
Series [3] deals with T3, LbCas12a-G532H (Lachnospiraceae bacterium ND2006, G532H). Put plainly: cleavage_in_vitro; PAM CTTC; NEB 2.1, 37C.
The target of series [4] is T4, LbCas12a-T152R (Lachnospiraceae bacterium ND2006, T152R). Put plainly: cleavage_in_vitro; PAM CTTC; NEB 2.1, 37C.
Series [5] addresses T5, LbCas12a-K538W (Lachnospiraceae bacterium ND2006, K538W). Put plainly: cleavage_in_vitro; PAM TATC; NEB 2.1, 37C.
In series [6] the target is T6, LbCas12a-K121R (Lachnospiraceae bacterium ND2006, K121R). Put plainly: cleavage_in_vitro; PAM TTCT; NEB 2.1, 37C.
The target of series [7] is T7, LbCas12a-E159K (Lachnospiraceae bacterium ND2006, E159K). Put plainly: cleavage_in_vitro; PAM TTCT; NEB 2.1, 37C.
Series [8] concerns the target T4, LbCas12a-T152R. As to the kind of experiment: cleavage_in_vitro; PAM GCCC; NEB 2.1, 37C.
Series [9] deals with T5, LbCas12a-K538W. As to the kind of experiment: cleavage_in_vitro; PAM TATA; NEB 2.1, 37C.
The next series has as its target LbCas12a-D122H (Lachnospiraceae bacterium ND2006, D122H). Put plainly: cleavage_in_vitro; PAM TCCC; NEB 2.1, 37C.
In series [10] the target is T8, LbCas12a-D535N (Lachnospiraceae bacterium ND2006, D535N). Put plainly: cleavage_in_vitro; PAM TTGC; NEB 2.1, 37C.
Series [11] concerns the target T1, LbCas12a-K595Y. Put plainly: cleavage_in_vitro; PAM TTCG; NEB 2.1, 37C.
Series [12] addresses T9, LbCas12a-K595W (Lachnospiraceae bacterium ND2006, K595W). Put plainly: cleavage_in_vitro; PAM ACGG; NEB 2.1, 37C.
The target in series [13] is T2, LbCas12a-D156Q. As to the kind of experiment: cleavage_in_vitro; PAM GTTC; NEB 2.1, 37C.
Series [14] addresses T1, LbCas12a-K595Y. As to the kind of experiment: cleavage_in_vitro; PAM GCGC; NEB 2.1, 37C.
Series [15] deals with T3, LbCas12a-G532H. As to the kind of experiment: cleavage_in_vitro; PAM TTCA; NEB 2.1, 37C.
In series [16] the target is T9, LbCas12a-K595W. As to the kind of experiment: cleavage_in_vitro; PAM CCCC; NEB 2.1, 37C.
Series [17] addresses T7, LbCas12a-E159K. Put plainly: cleavage_in_vitro; PAM CCCC; NEB 2.1, 37C.
The target in series [18] is T6, LbCas12a-K121R. As to the kind of experiment: cleavage_in_vitro; PAM CCTG; NEB 2.1, 37C.
In series [19] the target is T4, LbCas12a-T152R. Put plainly: cleavage_in_vitro; PAM CCTG; NEB 2.1, 37C.
In series [20] the target is T5, LbCas12a-K538W. Put plainly: cleavage_in_vitro; PAM TTTC; NEB 2.1, 37C.
Series [21] has as its target T8, LbCas12a-D535N. Put plainly: cleavage_in_vitro; PAM TTTC; NEB 2.1, 37C.

B1: PAMDA protospacer 1 crRNA ; protospacer 1 with ACCC PAM (ssRNA ; dsDNA)
RNA: AAUUUCUACUAAGUGUAGAUGGAAUCCCUUCUGCAGCACCUGG
DNA 1: ACCCGGAATCCCTTCTGCAGCACCTGG
DNA 2: CCAGGTGCTGCAGAAGGGATTCCGGGT
Turning to B1, the activity with LbCas12a-K595Y [1] worked out at 18.7 fold depletion.

B2: PAMDA protospacer 1 crRNA ; protospacer 1 with CCTA PAM (ssRNA ; dsDNA)
RNA: B1 RNA
DNA 1: CCTAGGAATCCCTTCTGCAGCACCTGG
DNA 2: CCAGGTGCTGCAGAAGGGATTCCTAGG
Consider B2, for which the activity in the series with LbCas12a-D156Q [2] amounted to 13.4 fold depletion.

B3: PAMDA protospacer 1 crRNA ; protospacer 1 with CTTC PAM (ssRNA ; dsDNA)
RNA: B1 RNA
DNA 1: CTTCGGAATCCCTTCTGCAGCACCTGG
DNA 2: CCAGGTGCTGCAGAAGGGATTCCGAAG
On to B3, for which the activity with LbCas12a-G532H [3] amounted to 15.1 fold depletion; with LbCas12a-T152R [4] it was 16.1 fold depletion.

B4: PAMDA protospacer 1 crRNA ; protospacer 1 with TATC PAM (ssRNA ; dsDNA)
RNA: B1 RNA
DNA 1: TATCGGAATCCCTTCTGCAGCACCTGG
DNA 2: CCAGGTGCTGCAGAAGGGATTCCGATA
B4 returned an activity with LbCas12a-K538W [5] of 9.66 fold depletion.

B5: PAMDA protospacer 1 crRNA ; protospacer 1 with TTCT PAM (ssRNA ; dsDNA)
RNA: B1 RNA
DNA 1: TTCTGGAATCCCTTCTGCAGCACCTGG
DNA 2: CCAGGTGCTGCAGAAGGGATTCCAGAA
Turning to B5, the values for the activity with LbCas12a-K121R [6] and in the series with LbCas12a-E159K [7] were 14.4 fold depletion and 12.7 fold depletion, respectively.

B6: PAMDA protospacer 1 crRNA ; protospacer 1 with GCCC PAM (ssRNA ; dsDNA)
RNA: B1 RNA
DNA 1: GCCCGGAATCCCTTCTGCAGCACCTGG
DNA 2: CCAGGTGCTGCAGAAGGGATTCCGGGC
As for B6, in the series with LbCas12a-T152R [8], the activity is 13 fold depletion.

B7: PAMDA protospacer 1 crRNA ; protospacer 1 with TATA PAM (ssRNA ; dsDNA)
RNA: B1 RNA
DNA 1: TATAGGAATCCCTTCTGCAGCACCTGG
DNA 2: CCAGGTGCTGCAGAAGGGATTCCTATA
In the series with LbCas12a-K538W [9], B7 displayed an activity of 10.4 fold depletion.

B8: PAMDA protospacer 1 crRNA ; protospacer 1 with TCCC PAM (ssRNA ; dsDNA)
RNA: B1 RNA
DNA 1: TCCCGGAATCCCTTCTGCAGCACCTGG
DNA 2: CCAGGTGCTGCAGAAGGGATTCCGGGA
On to B8, for which the activity in the series with LbCas12a-D122H is 18.8 fold depletion.

B9: PAMDA protospacer 1 crRNA ; protospacer 1 with TTGC PAM (ssRNA ; dsDNA)
RNA: B1 RNA
DNA 1: TTGCGGAATCCCTTCTGCAGCACCTGG
DNA 2: CCAGGTGCTGCAGAAGGGATTCCGCAA
B9 displayed an activity in the series with LbCas12a-D535N [10] of 10.9 fold depletion.

B10: PAMDA protospacer 1 crRNA ; protospacer 1 with TTCG PAM (ssRNA ; dsDNA)
RNA: B1 RNA
DNA 1: TTCGGGAATCCCTTCTGCAGCACCTGG
DNA 2: CCAGGTGCTGCAGAAGGGATTCCCGAA
With B10, in the series with LbCas12a-K595Y [11], the activity stood at 17.8 fold depletion.

B11: PAMDA protospacer 1 crRNA ; protospacer 1 with ACGG PAM (ssRNA ; dsDNA)
RNA: B1 RNA
DNA 1: ACGGGGAATCCCTTCTGCAGCACCTGG
DNA 2: CCAGGTGCTGCAGAAGGGATTCCCCGT
As for B11, in the series with LbCas12a-K595W [12], the activity came out at 11.5 fold depletion.

B12: PAMDA protospacer 1 crRNA ; protospacer 1 with GTTC PAM (ssRNA ; dsDNA)
RNA: B1 RNA
DNA 1: GTTCGGAATCCCTTCTGCAGCACCTGG
DNA 2: CCAGGTGCTGCAGAAGGGATTCCGAAC
B12 returned an activity with LbCas12a-D156Q [13] of 15.6 fold depletion.

B13: PAMDA protospacer 1 crRNA ; protospacer 1 with GCGC PAM (ssRNA ; dsDNA)
RNA: B1 RNA
DNA 1: GCGCGGAATCCCTTCTGCAGCACCTGG
DNA 2: CCAGGTGCTGCAGAAGGGATTCCGCGC
In turn, B13 displayed an activity in the series with LbCas12a-K595Y [14] of 17.5 fold depletion.

B14: PAMDA protospacer 1 crRNA ; protospacer 1 with TTCA PAM (ssRNA ; dsDNA)
RNA: B1 RNA
DNA 1: TTCAGGAATCCCTTCTGCAGCACCTGG
DNA 2: CCAGGTGCTGCAGAAGGGATTCCTGAA
Turning to B14, in the series with LbCas12a-G532H [15], the activity came to 16.2 fold depletion.

B15: PAMDA protospacer 1 crRNA ; protospacer 1 with CCCC PAM (ssRNA ; dsDNA)
RNA: B1 RNA
DNA 1: CCCCGGAATCCCTTCTGCAGCACCTGG
DNA 2: CCAGGTGCTGCAGAAGGGATTCCGGGG
Turning to B15, the activity with LbCas12a-K595W [16] amounted to 11.9 fold depletion; with LbCas12a-E159K [17], 12.3 fold depletion.

B16: PAMDA protospacer 1 crRNA ; protospacer 1 with CCTG PAM (ssRNA ; dsDNA)
RNA: B1 RNA
DNA 1: CCTGGGAATCCCTTCTGCAGCACCTGG
DNA 2: CCAGGTGCTGCAGAAGGGATTCCCAGG
Consider B16, for which the activity is 13 fold depletion in the series with LbCas12a-K121R [18] and 14.8 fold depletion with LbCas12a-T152R [19].

B17: PAMDA protospacer 1 crRNA ; protospacer 1 with TTTC PAM (ssRNA ; dsDNA)
RNA: B1 RNA
DNA 1: TTTCGGAATCCCTTCTGCAGCACCTGG
DNA 2: CCAGGTGCTGCAGAAGGGATTCCGAAA
Take B17: the activity worked out at 11.7 fold depletion with LbCas12a-K538W [20] and 10.5 fold depletion with LbCas12a-D535N [21].
